Measured values from article PMC9482650, “Quantitative fragmentomics allow affinity mapping of interactomes” (Nature Communications, 2022).

T1: APBA1_1, Q02410
T1 sequence (Q02410 651-752, limits assumed, looked up): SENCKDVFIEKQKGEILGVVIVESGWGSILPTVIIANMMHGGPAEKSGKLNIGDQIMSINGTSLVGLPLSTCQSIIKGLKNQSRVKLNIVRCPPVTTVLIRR

T2: APBA1_2, Q02410
T2 sequence (Q02410 742-832, limits assumed, looked up): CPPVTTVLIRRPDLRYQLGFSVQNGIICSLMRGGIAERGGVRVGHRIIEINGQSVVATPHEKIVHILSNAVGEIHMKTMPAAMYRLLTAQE

T3: GRIP1_3, Q9Y3R0
T3 sequence (Q9Y3R0 247-346, limits assumed, looked up): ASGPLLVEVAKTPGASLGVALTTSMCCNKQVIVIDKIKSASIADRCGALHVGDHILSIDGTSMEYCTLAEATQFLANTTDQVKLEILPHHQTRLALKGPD

T4: GRIP1_7, Q9Y3R0
T4 sequence (Q9Y3R0 999-1096, limits assumed, looked up): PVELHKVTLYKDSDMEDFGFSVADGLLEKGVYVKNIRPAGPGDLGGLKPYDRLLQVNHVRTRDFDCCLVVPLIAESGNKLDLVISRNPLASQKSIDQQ

T5: HTRA3, P83110
T5 sequence (P83110 354-453, limits assumed, looked up): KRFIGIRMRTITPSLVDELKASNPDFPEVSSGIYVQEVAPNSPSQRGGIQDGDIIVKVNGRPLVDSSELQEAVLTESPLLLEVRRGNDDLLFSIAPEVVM

T6: LNX2_3, Q8N448
T6 sequence (Q8N448 463-564, limits assumed, looked up): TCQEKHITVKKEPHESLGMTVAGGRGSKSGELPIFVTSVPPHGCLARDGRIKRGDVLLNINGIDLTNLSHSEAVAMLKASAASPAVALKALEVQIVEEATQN

T7: MPDZ_10, O75970
T7 sequence (O75970 1624-1722, limits assumed, looked up): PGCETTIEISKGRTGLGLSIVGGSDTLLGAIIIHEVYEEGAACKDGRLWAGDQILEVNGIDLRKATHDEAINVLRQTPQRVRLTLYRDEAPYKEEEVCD

T8: MPP7, Q5T2T1
T8 sequence (Q5T2T1 134-230, limits assumed, looked up): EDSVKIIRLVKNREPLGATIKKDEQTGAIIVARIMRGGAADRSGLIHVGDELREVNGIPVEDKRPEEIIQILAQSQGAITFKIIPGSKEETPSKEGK

T9: PDZD7_3, Q9H5P4
T9 sequence (Q9H5P4 857-944, limits assumed, looked up): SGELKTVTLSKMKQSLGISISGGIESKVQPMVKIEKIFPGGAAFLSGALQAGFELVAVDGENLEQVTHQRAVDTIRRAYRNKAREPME

T10: SHANK1, Q9Y566
T10 sequence (Q9Y566 658-767, limits assumed, looked up): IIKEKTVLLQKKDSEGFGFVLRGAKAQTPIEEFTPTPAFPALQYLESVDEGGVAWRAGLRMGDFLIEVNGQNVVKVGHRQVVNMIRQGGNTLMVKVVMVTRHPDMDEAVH

T11: SNTB1, Q13884
T11 sequence (Q13884 107-205, limits assumed, looked up): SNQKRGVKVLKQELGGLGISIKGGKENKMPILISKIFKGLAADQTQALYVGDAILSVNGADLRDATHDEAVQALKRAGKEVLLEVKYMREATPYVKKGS

T12: SYNJ2BP, P57105
T12 sequence (P57105 8-110, limits assumed, looked up): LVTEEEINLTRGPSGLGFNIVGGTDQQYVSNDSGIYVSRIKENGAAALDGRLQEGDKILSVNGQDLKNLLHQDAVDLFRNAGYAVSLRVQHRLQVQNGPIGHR

T13: TX1BP3, O14907
T13 sequence (O14907 10-122, limits assumed, looked up): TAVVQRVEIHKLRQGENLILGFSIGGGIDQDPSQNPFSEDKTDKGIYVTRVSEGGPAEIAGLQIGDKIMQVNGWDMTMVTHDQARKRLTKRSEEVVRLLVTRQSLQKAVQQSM


Assays:
Test in all cases: holdup assay
Parameters in all cases: key: below the threshold = too weak to quantify, mostly under pKd 3.1 to 4
Details in all cases: plain residues with an end cap or a label only (N-terminal biotin on a linker: ado-ado)
[1] = target: T1, APBA1_1, Q02410
[2] = target: T2, APBA1_2, Q02410
[3] = target: DLG2_2, Q15700
DLG2_2, Q15700, sequence (Q15700 189-283): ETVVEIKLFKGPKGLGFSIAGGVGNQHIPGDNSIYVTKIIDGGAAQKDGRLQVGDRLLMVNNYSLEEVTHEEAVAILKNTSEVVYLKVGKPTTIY

[4] = target: FRMPD2_1, Q68DX3
FRMPD2_1, Q68DX3, sequence (Q68DX3 770-861): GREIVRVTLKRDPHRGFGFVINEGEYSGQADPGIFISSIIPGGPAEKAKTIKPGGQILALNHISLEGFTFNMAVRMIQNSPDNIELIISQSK

[5] = target: GIPC2, Q8TF65
GIPC2, Q8TF65, sequence (Q8TF65 112-203): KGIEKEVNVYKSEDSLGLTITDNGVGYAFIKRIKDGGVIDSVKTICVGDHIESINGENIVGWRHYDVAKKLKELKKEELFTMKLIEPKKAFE

[6] = target: GRID2IP_1, A4D2P6
GRID2IP_1, A4D2P6, sequence (A4D2P6 1-87): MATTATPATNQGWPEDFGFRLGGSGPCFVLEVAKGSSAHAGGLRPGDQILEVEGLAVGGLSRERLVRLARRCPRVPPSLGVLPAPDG

[7] = target: GRID2IP_2, A4D2P6
GRID2IP_2, A4D2P6, sequence (A4D2P6 272-370): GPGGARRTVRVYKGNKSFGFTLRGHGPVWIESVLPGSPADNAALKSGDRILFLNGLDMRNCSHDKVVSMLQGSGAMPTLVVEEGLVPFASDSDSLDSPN

[8] = target: T3, GRIP1_3, Q9Y3R0
[9] = target: T4, GRIP1_7, Q9Y3R0
[10] = target: T5, HTRA3, P83110
[11] = target: Inadl_1, Q8NI35
Inadl_1, Q8NI35, sequence (Q8NI35 113-229): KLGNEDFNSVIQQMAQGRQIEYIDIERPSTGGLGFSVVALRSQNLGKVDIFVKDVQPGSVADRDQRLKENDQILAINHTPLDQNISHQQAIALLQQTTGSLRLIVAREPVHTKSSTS

[12] = target: T6, LNX2_3, Q8N448
[13] = target: MAGI3_2, Q5TCQ9
MAGI3_2, Q5TCQ9, sequence (Q5TCQ9 398-503): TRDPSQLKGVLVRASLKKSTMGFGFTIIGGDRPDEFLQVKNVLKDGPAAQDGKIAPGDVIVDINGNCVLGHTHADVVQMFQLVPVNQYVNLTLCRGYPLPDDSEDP

[14] = target: MAST1, Q9Y2H9
MAST1, Q9Y2H9, sequence (Q9Y2H9 962-1065): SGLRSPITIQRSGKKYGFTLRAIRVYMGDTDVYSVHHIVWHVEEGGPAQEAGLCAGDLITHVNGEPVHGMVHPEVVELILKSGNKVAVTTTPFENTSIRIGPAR

[15] = target: T7, MPDZ_10, O75970
[16] = target: T8, MPP7, Q5T2T1
[17] = target: NHERF4_4, Q86UT5
NHERF4_4, Q86UT5, sequence (Q86UT5 464-550): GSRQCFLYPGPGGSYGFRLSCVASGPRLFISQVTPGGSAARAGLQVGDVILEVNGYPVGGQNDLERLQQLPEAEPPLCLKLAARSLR

[18] = target: PARD3_3, Q8TEW0
PARD3_3, Q8TEW0, sequence (Q8TEW0 582-685): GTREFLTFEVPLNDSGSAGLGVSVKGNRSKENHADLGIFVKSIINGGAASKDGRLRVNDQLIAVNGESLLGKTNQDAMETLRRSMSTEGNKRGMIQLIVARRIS

[19] = target: T9, PDZD7_3, Q9H5P4
[20] = target: T10, SHANK1, Q9Y566
[21] = target: T11, SNTB1, Q13884
[22] = target: T12, SYNJ2BP, P57105
[23] = target: T13, TX1BP3, O14907

Binder | pKd [1] | pKd [2] | pKd [3] | pKd [4] | pKd [5] | pKd [6] | pKd [7] | pKd [8] | pKd [9] | pKd [10] | pKd [11] | pKd [12] | pKd [13] | pKd [14] | pKd [15] | pKd [16] | pKd [17] | pKd [18] | pKd [19] | pKd [20] | further results
PELESKESVL [SLC1A4, P43007] | below the threshold | below the threshold | 3.71 | below the threshold | below the threshold | below the threshold | 3.91 | below the threshold | below the threshold | below the threshold | below the threshold | below the threshold | 3.84 | 4.71 | below the threshold | below the threshold | below the threshold | 3.87 | 4.8 | below the threshold | pKd [21]: 4.8; pKd [22]: 4.34; pKd [23]: 4.1
RQSILFSTEV [BCR, P11274] | below the threshold | 4.07 | 4.63 | below the threshold | 3.56 | below the threshold | 4.3 | below the threshold | below the threshold | 3.63 | 3.88 | below the threshold | 4.13 | 4.97 | 3.62 | below the threshold | below the threshold | below the threshold | 4.85 | 4.58 | pKd [21]: 4.46; pKd [22]: 5.28; pKd [23]: 4.82
PLDSQQHTEV [FAT1, Q14517] | below the threshold | 3.7 | 4.62 | below the threshold | 3.89 | below the threshold | 3.84 | below the threshold | below the threshold | below the threshold | below the threshold | below the threshold | 3.71 | 4.43 | below the threshold | below the threshold | below the threshold | below the threshold | 4.31 | below the threshold | pKd [21]: 4.32; pKd [22]: 4.62; pKd [23]: 3.85
SRPTKGPTLL [PLEKHH2, Q8IVE3] | below the threshold | 4.25 | below the threshold | below the threshold | below the threshold | below the threshold | 4.48 | below the threshold | below the threshold | below the threshold | below the threshold | below the threshold | 4.4 | below the threshold | below the threshold | below the threshold | 3.89 | below the threshold | 4.78 | below the threshold | pKd [21]: below the threshold; pKd [22]: below the threshold; pKd [23]: 4.01
LTAQEQPVYI [APBA1, Q02410] | 3.65 | 4.36 | below the threshold | below the threshold | below the threshold | below the threshold | 3.81 | below the threshold | below the threshold | 4.41 | below the threshold | below the threshold | below the threshold | 3.58 | below the threshold | below the threshold | below the threshold | 4.82 | below the threshold | below the threshold | pKd [21]: below the threshold; pKd [22]: below the threshold; pKd [23]: below the threshold
RTQSSDSAYV [GJD2, Q9UKL4] | below the threshold | 4.09 | below the threshold | 3.66 | below the threshold | below the threshold | below the threshold | below the threshold | below the threshold | 4.68 | below the threshold | below the threshold | below the threshold | below the threshold | below the threshold | below the threshold | below the threshold | 3.68 | below the threshold | below the threshold | pKd [21]: below the threshold; pKd [22]: 3.66; pKd [23]: below the threshold
